We go through ten molecules from US20100003258A1 (AVEO PHARMACEUTICALS, published 2010).

Sequences and labels used below:
T1: recombinant human FGFR3 IIIb Fc fusion protein (human, UniProt P22607-2 23-377, limits assumed)
T1 construct: Bought reagent; the IIIb splice isoform is meant; also called rhFGFR3 IIIb Fc; hFGFR3 IIIb; not shown: Fc fragment (removable by Factor Xa, detected with anti-human IgG)
T1 sequence (looked up): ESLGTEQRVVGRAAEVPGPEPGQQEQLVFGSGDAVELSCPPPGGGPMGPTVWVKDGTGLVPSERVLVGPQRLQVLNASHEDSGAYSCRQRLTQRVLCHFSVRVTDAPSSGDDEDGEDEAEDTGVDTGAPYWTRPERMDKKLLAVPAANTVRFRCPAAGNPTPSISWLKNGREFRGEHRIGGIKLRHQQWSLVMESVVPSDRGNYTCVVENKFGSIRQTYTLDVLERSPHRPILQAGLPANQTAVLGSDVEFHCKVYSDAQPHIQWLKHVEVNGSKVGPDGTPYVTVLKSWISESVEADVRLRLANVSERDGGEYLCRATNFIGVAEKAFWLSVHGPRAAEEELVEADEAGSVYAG

T2: recombinant human FGFR3 IIIc Fc fusion protein (human, UniProt P22607 23-375)
T2 construct: Bought reagent; also called rhFGFR3 IIIc Fc; not shown: Fc fragment (removable by Factor Xa)
T2 sequence (looked up): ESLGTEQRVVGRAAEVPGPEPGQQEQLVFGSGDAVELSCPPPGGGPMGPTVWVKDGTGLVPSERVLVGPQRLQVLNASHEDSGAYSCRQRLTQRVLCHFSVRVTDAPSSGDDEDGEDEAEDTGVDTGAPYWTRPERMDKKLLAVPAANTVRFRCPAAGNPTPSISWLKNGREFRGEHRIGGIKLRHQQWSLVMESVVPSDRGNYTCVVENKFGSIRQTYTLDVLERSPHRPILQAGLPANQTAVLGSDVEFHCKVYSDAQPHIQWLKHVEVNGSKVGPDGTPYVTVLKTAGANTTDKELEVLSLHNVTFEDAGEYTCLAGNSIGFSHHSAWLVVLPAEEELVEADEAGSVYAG

B1: anti-FGFR3 monoclonal antibody 4E7 (antibody, mouse IgG1, kappa, V domains shown)
VH: EIQLQQSGPELVKPGASVKVSCKASGYAFTSYNMYWVKQSHGKSLEWIGYIDPYNGGTRYNQKFKGKATLTVDKSSSTAYMHLNSLTSEDSAVYYCAREGGNYEAWFAYWGQGTLVTVSA
VL: QIVLTQSPALMSASPGEKVTMTCSASSSVSYMYWYQQKPRSSPKPWIYLTSNLASGVPARFSGSGSGTSYSLTISSMEAEDAATYYCQQWSSNPLTFGAGTKLELKR
notes: Murine IgG1/kappa from hybridoma; also called 4E7 IgG1; 4E7 (7D12)
B2: anti-FGFR3 monoclonal antibody 27H2 (antibody, mouse IgG1, kappa, V domains shown)
VH: B1 VH with L70M
VL: B1 VL
notes: Murine IgG1/kappa from hybridoma; also called 27H2 IgG1; murine antibody 27H2
B3: anti-FGFR3 monoclonal antibody 2G4 (antibody, mouse IgG1, kappa, V domains shown)
VH: B1 VH with Y60D
VL: B1 VL
notes: Murine IgG1/kappa from hybridoma; also called 2G4 IgG1; murine antibody 2G4
B4: Chimeric 15D8 (antibody, human IgG1, kappa)
heavy: not shown
light: QIVLTQSPALMSASPGEKVTMTCSASSSVSYMYWYQQKPRSSPKPWIYLTSYLASGVPARFSGSGSGTSYSLTISSMEAEDAATYYCQQWSSYPLTFGAGTKLELKRTVAAPSVFIFPPSDEQLKSGTASVVCLLNNFYPREAKVQWKVDNALQSGNSQESVTEQDSKDSTYSLSSTLTLSKADYEKHKVYACEVTHQGLSSPVTKSFNRGEC
notes: Mouse variable regions with human IgG1 and human kappa constant regions; made in 293T cells; also called chimeric 15D8 antibody
B5: anti-FGFR3 monoclonal antibody 7D12 (antibody, mouse IgG1, kappa, V domains shown)
VH: B1 VH
VL: B1 VL
notes: Murine IgG1/kappa from a separate hybridoma; also called 7D12 IgG1; 4E7 (7D12)
B6: 7D12 Fab (Fab, V domains shown, not shown: a dimerising Fc or GST)
VH: B1 VH
VL: B1 VL
notes: preparation not described; also called anti-FGFR3 Fab fragment 7D12
B7: 4E7 Fab (Fab, V domains shown, not shown: a dimerising Fc or GST)
VH: B1 VH
VL: B1 VL
notes: Fab fragment of murine 4E7; preparation not described; also called anti-FGFR3 Fab fragment 4E7
B8: 27H2 Fab (Fab, V domains shown, not shown: a dimerising Fc or GST)
VH: B1 VH with L70M
VL: B1 VL
notes: Fab fragment of murine 27H2; preparation not described; also called anti-FGFR3 Fab fragment 27H2
B9: 2G4 Fab (Fab, V domains shown, not shown: a dimerising Fc or GST)
VH: B1 VH with Y60D
VL: B1 VL
notes: Fab fragment of murine 2G4; preparation not described; also called anti-FGFR3 Fab fragment 2G4
B10: 15D8 Fab (Fab, V domains shown, not shown: a dimerising Fc or GST)
VH: B1 VH with R59S
VL: B1 VL with N52Y, N93Y
notes: Fab fragment of murine 15D8; preparation not described; also called anti-FGFR3 Fab fragment 15D8

Changes are numbered by the printed parent chain.

For the first assay, the target named is T1, recombinant human FGFR3 IIIb Fc fusion …. As to the kind of experiment: SPR (Biacore T100), antibody captured on anti-mouse Ig, rhFGFR3 IIIb Fc as analyte, 25 C. Here is the method: (§1) The binding affinities and kinetics of interaction of the monoclonal antibodies (15D8, 27H2, 2G4, and 4E7(7D12)) produced in Example 1 against recombinant human FGFR3 (IIIb and IIIc isoforms) Fc fusion protein (rhFGFR3 IIIb Fc or rhFGFR3 IIIc Fc) were measured by surface plasmon resonance using a Biacore™ T100 (Biacore) instrument.
(§2) Rabbit anti-mouse immunoglobulins (Biacore, Catalog No. BR-1005-14) were immobilized on carboxymethylated dextran CM4 sensor chips (Biacore, Catalog No. BR-1005-34) by amine coupling (Biacore, Catalog No. BR-1000-50) using a standard coupling protocol according to manufacturer's instructions.
(§3) The antibodies were captured in an individual flow cell at a flow rate of 10 μl/min. Injection time was varied for each antibody to yield approximately 40-50 RU of antibody captured for each cycle. Buffer or rhFGFR3 IIIb Fc (R&D Systems, Catalog No. 1264-FR-050) or rhFGFR3 IIIc Fc (R&D Systems, Catalog No. 766-FR-050) diluted in running buffer was injected sequentially over a reference surface (no antibody captured) and the active surface (antibody to be tested) for 300 sec at 60 μl/min. The dissociation phase was monitored for 30 minutes. The surface was then regenerated with two 60-seconds injection of 10 mM Glycine-HCl, pH 1.7 (made from Glycine pH 1.5 (Biacore, Catalog No. BR-1003-54) and pH 2.0 (Biacore, Catalog No. BR-1003-55)) at a flow rate of 60 μl/min. rhFGFR3 Fc concentrations tested were 0.62 nM to 40 nM.
B1: the dissociation constant Kd was 3.3 nM, the dissociation rate constant (koff) amounted to 0.00037 s⁻¹ and the kon is 150000 M⁻¹ s⁻¹.
Turning to B2, the Kd is 3 nM, the koff stood at 0.00026 s⁻¹ and the on-rate constant (kon) came to 90000 M⁻¹ s⁻¹.
The like results for B3 were, in that order, 3.2 nM, 0.00032 s⁻¹ and 120000 M⁻¹ s⁻¹.

A further assay concerns the target T2, recombinant human FGFR3 IIIc Fc fusion …. As to the kind of experiment: SPR (Biacore T100), antibody captured on anti-mouse Ig, rhFGFR3 IIIc Fc as analyte, 25 C. The procedure:
as §1, §2, §3
Consider B1, for which the Kd worked out at 2.6 nM, the dissociation rate constant (koff) turned out to be 0.00019 s⁻¹ and the kon was 110000 M⁻¹ s⁻¹.
In the same order, the values of B2 are 2.1 nM, 0.00016 s⁻¹ and 75000 M⁻¹ s⁻¹.
In the same order, the values of B3 are 1.1 nM, 0.00011 s⁻¹ and 100000 M⁻¹ s⁻¹.

The target in another assay is T1, recombinant human FGFR3 IIIb Fc fusion …. Kind of assay: SPR (Biacore T100), antibody captured on anti-mouse Ig, rhFGFR3 IIIb Fc as analyte, 37 C. Here is the method:
as §1, §2, §3
With B1, the Kd stood at 3.3 nM, the koff turned out to be 0.00023 s⁻¹ and the on-rate constant (kon) came out at 74000 M⁻¹ s⁻¹.
In the same order, the values of B2 are 2.1 nM, 0.00019 s⁻¹ and 100000 M⁻¹ s⁻¹.
In the same order, the values of B3 are 1.4 nM, 0.00023 s⁻¹ and 150000 M⁻¹ s⁻¹.

In the next assay the target is T2, recombinant human FGFR3 IIIc Fc fusion …. As to the kind of experiment: SPR (Biacore T100), antibody captured on anti-mouse Ig, rhFGFR3 IIIc Fc as analyte, 37 C. The procedure:
as §1, §2, §3
Regarding B1, the Kd was 2.2 nM, the off-rate constant (koff) worked out at 0.00017 s⁻¹ and the kon came out at 94000 M⁻¹ s⁻¹.
The like results for B2 were, in that order, 2.1 nM, 0.0002 s⁻¹ and 96000 M⁻¹ s⁻¹.
The like results for B3 were, in that order, 2.6 nM, 0.00026 s⁻¹ and 100000 M⁻¹ s⁻¹.

For another assay the target is unchanged. As to the kind of experiment: kinetic exclusion assay (KinExA), antibody and rhFGFR3 IIIc Fc in solution, room temperature. Here is the method:
The binding affinities of monoclonal 15D8, chimeric 15D8, and humanized 15D8 antibodies for recombinant human FGFR3 IIIc Fc fusion protein was measured using a kinetic exclusion assay, KinExA® technology (Sapidyne Instruments, Inc.). First, beads were prepared for the purpose of detecting anti-FGFR3 antibody that is unbound to FGFR3 IIIc Fc. This was done by adding 1 ml recombinant human FGFR3IIIc Fc (R&D Systems, Inc.) 10 ug/ml in PBS to 200 mg polymethyl methacrylate (PMMA) hard beads. The suspension was mixed and rotated for two hours at room temperature. Next, the mixture was centrifuged and supernatant was discarded. The bead pellet was rinsed once with 1 ml BSA 10 mg/ml in PBS by incubation for 1 hour at room temperature with rotation. The beads were resuspended in 27 ml PBS with 0.02% NaN₃. Next, a fixed concentration of anti-FGFR3 antibody (0.5 nM) was incubated in solution with a series of FGFR3 IIIc Fc concentrations (started with 50 nM (in PBS BSA (1 mg/ml)) and serially diluted 1:2 in PBS BSA(1 mg/ml) to obtain 50 to 0.0122 nM FGFR3 III Fc) at room temperature for at least 4 hours to allow equilibrium to be reached. By measuring the amount of anti-FGFR3 antibody that is not bound to FGFR3 IIIc Fc, the KD was determined. Unbound anti-FGFR3 antibody was detected by allowing the anti-FGFR3 antibody/FGFR3 IIIc Fc solution to flow through the FGFR3 IIIc Fc PMMA beads. The anti-FGFR3 antibody captured by these beads was then detected with Cy5-conjugated anti-human secondary antibody 0.3 ug/ml (Jackson ImmunoResearch) or Cy5-conjugated anti-mouse secondary antibody (Jackson ImmunoResearch) 0.5 ug/ml in PBS BSA 1 mg/ml. The detected signal for captured anti-FGFR3 antibody is directly proportional to the remaining free binding sites, thus allowing KD determination. The experiments were repeated, varying the concentrations of anti-FGFR3 antibody or FGFR3 III Fc used in solution, and the KD was calculated with the KinExA® software using n-curve analysis.
Consider B4, for which the equilibrium dissociation constant (Kd) turned out to be 0.0503 nM.

A further assay concerns the target T1, recombinant human FGFR3 IIIb Fc fusion …. Kind of assay: ECL competition assay: inhibition of rhFGFR3 IIIb Fc binding to coated FGF1 (competitor FGF1). Here is the method: The antibodies were tested by ECL (Electrochemiluminescence) assay for inhibition of hFGFR3 IIIB binding to FGF-1. […] The plates then were washed 3 times with PBS and blocked with 200 μl of PBS containing 5% BSA (Sera Care Life Sciences, Catalog No. AP-4510-80) and 5 μg/mL heparin (Sigma, Catalog No. H4784) for 1 hour at room temperature. The antibodies (concentration range: 0.029-30 μg/mL) were incubated for 1 hour at room temperature with 1.7 μg/mL rhFGFR3 IIIb Fc (R&D Systems, Catalog No. 1264-FR-050) and 5 μg/mL heparin. After washing the plates 3 times with PBS, 25 μl of the antibody-receptor mixture was added to the plates for another hour at room temperature with agitation. The plates were washed three times with PBS and incubated with 25 μl of 1 μg/mL ST-anti-human IgG antibody (Meso Scale Discovery, Catalog No. R32AJ-1) for 1 hour at room temperature with agitation. The plates then were washed 3 times with PBS, and 150 μl of 1× read buffer (Meso Scale Discovery, Catalog No. R92TC-1) was added to each well before the plates were analyzed on a Sector Imager 2400 (Meso Scale Discovery) instrument.
On to B1, for which the half-maximal inhibitory concentration (IC50) turned out to be 18.5 nM and the “Maximum Neutralization (%)” value was 91.2%.
The like results for B5 were, in that order, 13.3 nM and 93.9%.
The like results for B6 were, in that order, 50 nM and 88.8%.
The like results for B7 were, in that order, 69.5 nM and 92.2%.
Consider B8, for which the IC50 was 53.5 nM and the “Maximum Neutralization (%)” value is 95.8%.
In the same order, the values of B9 are 65 nM and 96.2%.
The like results for B10 were, in that order, 63.8 nM and 91.7%.
In the same order, the values of B2 are 15.4 nM and 99.6%.
For B3, the half-maximal inhibitory concentration (IC50) stood at 11.1 nM and the “Maximum Neutralization (%)” value was found to be 64.9%.
